According to publication PMC6104973:

Tests used:
[1] = target: CD47 (Homo sapiens) (UniProt Q08722); conditions: cited from earlier work
[2] = target: ALX148 (human); assay: SPR; hFcRn flowed (0-5000 nM) over ALX proteins captured on a GLC chip with immobilised human CD47 ECD; 25°C; PBS pH 5.8, 0.01% Tween-20; equilibrium analysis; apparent

Sequence of UniProt Q08722 (Q08722 19-323): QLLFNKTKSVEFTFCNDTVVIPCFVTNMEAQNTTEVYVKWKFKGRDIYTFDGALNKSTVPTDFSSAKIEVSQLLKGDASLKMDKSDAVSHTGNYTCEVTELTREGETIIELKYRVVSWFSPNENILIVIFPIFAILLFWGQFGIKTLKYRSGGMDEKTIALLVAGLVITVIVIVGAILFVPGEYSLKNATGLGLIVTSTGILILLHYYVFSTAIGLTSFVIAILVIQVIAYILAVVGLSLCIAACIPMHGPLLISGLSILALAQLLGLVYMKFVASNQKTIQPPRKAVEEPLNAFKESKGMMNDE

In the case of SIRPα (from UniProt P78324), the Kd [1] is listed as 1000 nM.
“human neonatal Fc receptor (FcRn) (from UniProt P55899 24-297)” gave a Kd [2] of 580 nM.
